Experimental data from patent US20110020432A1, “COMPOSITIONS AND METHODS OF USE FOR POST-RADIATION PROTECTION” (TERAPIO CORPORATION, priority 2009, published 2011).

What was measured:
[1] = reported in the scientific literature; cited from earlier work
mice = details: whole animal studies; reported DRF; cited from earlier work
[2] = system: wild-type (+/+) and homozygous (−/−) RIP1 mice; experiment: Survival of wild-type and RIP1 knockout mice after X-irradiation, RLIP76 liposomes i.p.; assay type: in vivo
Experimental: FIG. 5. Effect of RLIP76 on survival after higher doses of X irradiation. Four wild-type (+/+) RIP1 mice and four homozygous (−/−) mice were each exposed to 750 cGy X irradiation and treated with control liposomes administered by i.p. injection (triangles, homozygous RIP1 mice; diamonds, wild-type RIP mice), or 400 μg RLIP76 liposomes administered by i.p. injection (squares, homozygous RIP1 mice; circles, wild-type RIP1 mice), given 12 hours after exposure.
As disclosed in U.S. Ser. No. 11/741,447, C57B mice that carry both copies of the RIP1 (mouse version of RLIP76) gene (wild-type; +/+), one copy of the RIP1 gene (heterozygous; +/−), or no copies of the RIP1 gene (homozygous; −/−) were created using Cre-Lox technology that can selectively suppress genes (Lexicon Genetics, Incorporated, The Woodlands, Tex.). Western blot analysis of tissues from homozygous RIP 1 knockout mice was performed after i.p. injection of RLIP76-liposomes. […]
If loss of RIP1 was the major determining factor in this acquired radiation sensitivity, replacement of this deficit should reverse radiation […]. […] Liposomes were prepared in sufficient quantities and administered via intraperitoneal (i.p.) injection to homozygous RIP1 mice. […]

C57BL6/albino mice = experiment: Survival after whole body X-irradiation, oral RLIP76 proteoliposomes (dose and time response); assay type: in vivo
Experimental: In order to investigate whether RLIP76 could be effective when delivered more than 24 hours after radiation exposure, a series of studies were conducted to explore the protective benefit of RLIP76 when given at varying doses, exposure levels, and times after exposure. All mice were C57BL6/albino strain, the strain most commonly used for radiation effect models. Exposure was delivered by whole body X-irradiation with a Varian Clinac Linear accelerator (2100C) at the Texas Cancer Center (Arlington, Tex.). A 6-MeV photon beam was used at a rate of 400 cGy/minute. Mice were isolated to one side of their cage on top of 1.5 cm of superflab bolus and the field of treatment centered on them. Total dose was split into two fractions, anterior and posterior, by rotating the accelerator gantry 180 degrees. Unless otherwise specified, all experiments were performed on six mice per group.
Dose and time dependency was investigated over a range of radiation exposures. Initially, six groups of wild-type mice were exposed to 500 cGy of radiation, and then treated with no RLIP76 proteoliposomes (control) or various dosages of RLIP76 proteoliposomes given at various times after the radiation exposure. […]

## Cc1cc(C(C)(C)C)c(O)c(C(C)(C)C)c1 [BHT, butylated hydroxytoluene]
[1]
  radioprotective effect on its own: radioprotective effect

## CC1=NN(c2ccccc2)C(=O)C1 [edaravone, 3 methyl-1-phenyl-2-pyrazolin-5-one]
mice
  dose-reduction factor (DRF): 1.3

## CC1(C)CC(O)CC(C)(C)N1[O] [tempol, 4-hydroxy-2,2,6,6-tetramethylpiperidinyloxy]
mice
  dose-reduction factor (DRF): 1.3

B1: RLIP76 protein: ubiquitous multi-specific efflux pump protein; human sequence of 655 amino acids, GenBank NP—006779; recombinant (protein, UniProt Q15311 2-655, looked up)
RalA-binding protein 1: TECFLPPTSSPSEHRRVEHGSGLTRTPSSEEISPTKFPGLYRTGEPSPPHDILHEPPDVVSDDEKDHGKKKGKFKKKEKRTEGYAAFQEDSSGDEAESPSKMKRSKGIHVFKKPSFSKKKEKDFKIKEKPKEEKHKEEKHKEEKHKEKKSKDLTAADVVKQWKEKKKKKKPIQEPEVPQIDVPNLKPIFGIPLADAVERTMMYDGIRLPAVFRECIDYVEKYGMKCEGIYRVSGIKSKVDELKAAYDREESTNLEDYEPNTVASLLKQYLRDLPENLLTKELMPRFEEACGRTTETEKVQEFQRLLKELPECNYLLISWLIVHMDHVIAKELETKMNIQNISIVLSPTVQISNRVLYVFFTHVQELFGNVVLKQVMKPLRWSNMATMPTLPETQAGIKEEIRRQEFLLNCLHRDLQGGIKDLSKEERLWEVQRILTALKRKLREAKRQECETKIAQEIASLSKEDVSKEEMNENEEVINILLAQENEILTEQEELLAMEQFLRRQIASEKEEIERLRAEIAEIQSRQQHGRSETEEYSSESESESEDEEELQIILEDLQRQNEELEIKNNHLNQAIHEEREAIIELRVQLRLLQMQRAKAEQQAQEDEEPEWRGGAVQPPRDGVLEPKAAKEQPKAGKEPAKPSPSRDRKETSI
[2]; RIP1−/− mice supplemented with RLIP76, 750 cGy
  survival as compared with RIP1+/+ mice: significantly improved survival
[2]; mice genetically deficient in RLIP76 protein, supplementation by intravenous or oral administration
  reversal of radiation sensitivity: can be reversed
C57BL6/albino mice; initial dose given a full 24 hours or more after the radiation exposure
  rescue with delayed first dose: significant rescue
C57BL6/albino mice; wild-type mice, radiation dose that normally results in complete lethality by day 30 (500 cGy), 2 doses of 100 micrograms, oral
  increase in survival: 200%
